The target in one test is LRP5 (Homo sapiens, UniProt O75197). Description: ^125I-DKK1 binding to LRP5, competition by Mesd or oligopeptide (FIG. 10B). The procedure: In order to investigate the binding of Mesd polypeptide and an Mesd oligopeptide to either LRP5 or LRP6, binding assays were performed using ^125I-Mesd or ^125I-DKK1 (FIG. 10).
Test [1] deals with T1, LRP6 (Homo sapiens, UniProt O75581). Description: LRP6 folding: western blot of ER and mature LRP6 forms in HEK293 cells with Mesd coexpression. It is filed as cell-based. As to conditions: HEK293 cells transiently transfected with LRP6 cDNA and Mesd or MesdΔC cDNA. Also noted: plasmid pCS-Myc-hLRP6 containing the full-length human LRP6 cDNA; HA; expressed in transfected cells. The procedure: To examine the expression of the LDLR family members, cells cultured in six-well plates were lysed with 0.5 ml lysis buffer (phosphate-buffered saline containing 1% Triton X-100 and 1 mM PMSF) at 4° C. for 30 minutes. Equal quantities of protein were subjected to SDS-PAGE under non-reducing conditions. Following transfer to Immobilon-P membrane, successive incubations with primary antibody and horseradish peroxidase-conjugated secondary antibody were carried out for 60 minutes at room temperature. The immunoreactive proteins were then detected using the ECL system.
To examine the role of this C-terminal region of Mesd on receptor folding, a Mesd mutant (Mesd_C), which lacks the C-terminal region (amino acids 156-191) but retains the endoplasmic reticulum retention signal (REDL) was generated (FIG. 3A). Next, a potential role for MesdΔC on LRP6 folding was evaluated. HEK293 cells were transiently transfected with cDNA for the LRP6 with cotransfection of control vector, or cDNAs for Mesd or MesdΔC. The steady-state levels of LRP6 were analyzed by western blotting with the anti-MYC antibody (FIG. 5A). […] In FIG. 5A, HEK293 cells were transiently transfected with the indicated cDNAs. Cell lysates were analyzed by SDS-PAGE under reducing conditions and western blotted with anti-FLAG or anti-HA antibodies as indicated.
Background: A western blot detects proteins with antibodies after separation by electrophoresis.

Test [2] has as its target T1, LRP6. Description: ^125I-Mesd cell surface ligand binding to LRP6-transduced HT1080 cells. Also noted: plasmid pCS-Myc-hLRP6 containing the full-length human LRP6 cDNA; HA; expressed in transfected cells; host or cells: human HT1080 cells, stably transduced (pLNCX2 retroviral vector). The procedure:
To examine whether Mesd binds with high affinity to […] at the cell surface, cell surface ligand binding experiments were performed with cells stably transduced with LRP6 cDNA. Human HT1080 cells, which express undetectable levels of LRP6, were transduced with a viral vector alone (pLNCX2) or with vector containing LRP6 cDNA (Li, Y., Oncogene 23: 9129-9135, 2004) and used for ^125I-Mesd binding (FIG. 1A). ^125I-Mesd (5 nM) reached maximal binding after 2 hours incubation at 4° C. with LRP6-expressing HT1080 cells (FIG. 1A).
(A) Time course of ^125I-Mesd (5 nM) binding to LRP6-transduced HT1080 cells and the control cells. Assay was carried out for the indicated periods at 4° C. in the absence (total) or presence of 500 nM Mesd (non-specific). (B) Saturation binding of ^125I-Mesd to LRP6-transduced HT1080 cells and the control cells. Assay was carried out at indicated concentrations for 3 hours at 4° C. in the absence (total) or presence (non-specific) of 500 nM Mesd. (C) Scatchard plots of data in B. All values are the average of triple determinations with the s.d. indicated by error bars.
Cells (2×10^5) were seeded into 12-well dishes 1 day prior to assay. Ligand-binding buffer (minimal Eagle's medium containing 0.6% BSA with a different concentration of radioligand, 0.6 ml/well) was added to cell monolayers, in the absence or the presence of 500 nM unlabeled RAP or 500 nM unlabeled Mesd, followed with incubation for 0-4 hours at 4° C. Thereafter, overlying buffer containing unbound ligand was removed, and cell monolayers were washed and lysed in low-SDS lysis buffer (62.5 mM Tris-HCl pH 6.8, 0.2% SDS, 10% v/glycerol) and counted.

The subject of test [3] is TCF/LEF transcriptional activity. As to the kind of experiment: TOP-FLASH luciferase reporter assay in HEK293 cells cotransfected with LRP6 and Mesd constructs. It counts as cell-based. As to conditions: luciferase 48 hours after transfection. The procedure: HEK293 cells were plated into six-well plates. For each well, […] of the TOP-[…] luciferase construct (Upstate Biotechnology) was cotransfected with 0.8 μg Mesd-expressing vector, 0.8 μg Mesd mutant-expressing vector, or empty vector. A β-galactosidase-expressing vector (Promega, Madison, Wis.) was included as an internal control for transfection efficiency. After 48 hours, cells were lysed and both luciferase and β-galactosidase activities were determined with enzyme assay kits (Promega). The luciferase activity was determined with a luminometer using the Dual Luciferase Assay system (Promega). Luciferase activity was normalized to the activity of the P-galactosidase.
Activation of canonical Wnt signaling leads to the stabilization of P-catenin and regulation of gene transcription through transcription regulators including lymphoid-enhancing factor (LEF)-1 and T-cell factors (TCF). The TOP-FLASH luciferase reporter contains TCF-binding sites and can be directly activated by the P-catenin/TCF complex (Korinek et al., 1997). LRP6 is cell surface receptor, and only the mature receptor can reach the cell surface and modulate Wnt signaling (Cong et al., 2004). Next examined was the effect of Mesd_C on Wnt signaling using the TOP-FLASH luciferase reporter assay in HEK293 cells. […] The luciferase activity was measured 48 hours after transfection. […]
(A reporter such as luciferase makes a cellular process visible.)

Where only a bound is given, the exact number is not on record here.

The text below walks through data of patent US20080227698A1, “OLIGOPEPTIDES FOR TREATMENT OF OSTEOPOROSIS AND OTHER BONE DISEASES AND METHODS THEREOF” (Washington University, priority 2005, published 2008).

T1 sequence (O75581 20-1613): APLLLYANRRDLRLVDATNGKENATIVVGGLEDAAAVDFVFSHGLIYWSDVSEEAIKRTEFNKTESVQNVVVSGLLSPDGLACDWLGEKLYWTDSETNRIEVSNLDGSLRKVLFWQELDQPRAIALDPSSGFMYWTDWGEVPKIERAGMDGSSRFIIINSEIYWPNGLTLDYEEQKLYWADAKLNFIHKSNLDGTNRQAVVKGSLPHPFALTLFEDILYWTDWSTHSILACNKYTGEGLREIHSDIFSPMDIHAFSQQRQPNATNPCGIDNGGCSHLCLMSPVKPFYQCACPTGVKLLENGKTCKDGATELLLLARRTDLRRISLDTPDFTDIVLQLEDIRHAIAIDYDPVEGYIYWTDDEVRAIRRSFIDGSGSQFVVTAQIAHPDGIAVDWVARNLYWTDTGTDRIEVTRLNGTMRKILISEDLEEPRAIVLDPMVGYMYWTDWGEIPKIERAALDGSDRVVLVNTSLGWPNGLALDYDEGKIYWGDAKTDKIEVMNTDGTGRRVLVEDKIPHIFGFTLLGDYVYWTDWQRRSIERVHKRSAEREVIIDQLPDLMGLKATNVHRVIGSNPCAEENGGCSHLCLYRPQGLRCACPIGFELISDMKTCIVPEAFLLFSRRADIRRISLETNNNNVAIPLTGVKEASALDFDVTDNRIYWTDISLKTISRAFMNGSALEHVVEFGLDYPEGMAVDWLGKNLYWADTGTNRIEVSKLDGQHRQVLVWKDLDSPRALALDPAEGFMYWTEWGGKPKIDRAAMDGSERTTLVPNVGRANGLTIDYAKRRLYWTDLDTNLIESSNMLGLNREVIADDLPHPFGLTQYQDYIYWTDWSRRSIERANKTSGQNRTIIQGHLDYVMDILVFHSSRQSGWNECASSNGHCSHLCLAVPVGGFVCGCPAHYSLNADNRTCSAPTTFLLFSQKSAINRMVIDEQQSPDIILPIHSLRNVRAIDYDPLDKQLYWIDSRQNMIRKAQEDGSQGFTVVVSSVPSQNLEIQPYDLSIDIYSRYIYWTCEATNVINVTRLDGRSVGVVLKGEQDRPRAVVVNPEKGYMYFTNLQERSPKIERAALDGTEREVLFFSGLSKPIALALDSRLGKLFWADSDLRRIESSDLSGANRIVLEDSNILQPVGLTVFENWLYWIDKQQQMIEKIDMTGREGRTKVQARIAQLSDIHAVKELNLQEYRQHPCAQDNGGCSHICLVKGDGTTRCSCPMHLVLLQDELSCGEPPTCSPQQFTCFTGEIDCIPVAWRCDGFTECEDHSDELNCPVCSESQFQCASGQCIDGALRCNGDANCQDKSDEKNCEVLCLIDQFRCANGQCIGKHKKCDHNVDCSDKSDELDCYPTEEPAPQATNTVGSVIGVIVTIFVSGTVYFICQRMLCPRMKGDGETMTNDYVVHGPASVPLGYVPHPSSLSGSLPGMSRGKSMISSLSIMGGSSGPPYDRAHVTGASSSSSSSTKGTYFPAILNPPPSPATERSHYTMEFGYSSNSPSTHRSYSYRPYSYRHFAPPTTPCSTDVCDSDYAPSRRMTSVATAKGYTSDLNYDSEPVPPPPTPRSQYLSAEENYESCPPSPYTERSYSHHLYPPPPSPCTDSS
LRP5, sequence (O75197 32-1615): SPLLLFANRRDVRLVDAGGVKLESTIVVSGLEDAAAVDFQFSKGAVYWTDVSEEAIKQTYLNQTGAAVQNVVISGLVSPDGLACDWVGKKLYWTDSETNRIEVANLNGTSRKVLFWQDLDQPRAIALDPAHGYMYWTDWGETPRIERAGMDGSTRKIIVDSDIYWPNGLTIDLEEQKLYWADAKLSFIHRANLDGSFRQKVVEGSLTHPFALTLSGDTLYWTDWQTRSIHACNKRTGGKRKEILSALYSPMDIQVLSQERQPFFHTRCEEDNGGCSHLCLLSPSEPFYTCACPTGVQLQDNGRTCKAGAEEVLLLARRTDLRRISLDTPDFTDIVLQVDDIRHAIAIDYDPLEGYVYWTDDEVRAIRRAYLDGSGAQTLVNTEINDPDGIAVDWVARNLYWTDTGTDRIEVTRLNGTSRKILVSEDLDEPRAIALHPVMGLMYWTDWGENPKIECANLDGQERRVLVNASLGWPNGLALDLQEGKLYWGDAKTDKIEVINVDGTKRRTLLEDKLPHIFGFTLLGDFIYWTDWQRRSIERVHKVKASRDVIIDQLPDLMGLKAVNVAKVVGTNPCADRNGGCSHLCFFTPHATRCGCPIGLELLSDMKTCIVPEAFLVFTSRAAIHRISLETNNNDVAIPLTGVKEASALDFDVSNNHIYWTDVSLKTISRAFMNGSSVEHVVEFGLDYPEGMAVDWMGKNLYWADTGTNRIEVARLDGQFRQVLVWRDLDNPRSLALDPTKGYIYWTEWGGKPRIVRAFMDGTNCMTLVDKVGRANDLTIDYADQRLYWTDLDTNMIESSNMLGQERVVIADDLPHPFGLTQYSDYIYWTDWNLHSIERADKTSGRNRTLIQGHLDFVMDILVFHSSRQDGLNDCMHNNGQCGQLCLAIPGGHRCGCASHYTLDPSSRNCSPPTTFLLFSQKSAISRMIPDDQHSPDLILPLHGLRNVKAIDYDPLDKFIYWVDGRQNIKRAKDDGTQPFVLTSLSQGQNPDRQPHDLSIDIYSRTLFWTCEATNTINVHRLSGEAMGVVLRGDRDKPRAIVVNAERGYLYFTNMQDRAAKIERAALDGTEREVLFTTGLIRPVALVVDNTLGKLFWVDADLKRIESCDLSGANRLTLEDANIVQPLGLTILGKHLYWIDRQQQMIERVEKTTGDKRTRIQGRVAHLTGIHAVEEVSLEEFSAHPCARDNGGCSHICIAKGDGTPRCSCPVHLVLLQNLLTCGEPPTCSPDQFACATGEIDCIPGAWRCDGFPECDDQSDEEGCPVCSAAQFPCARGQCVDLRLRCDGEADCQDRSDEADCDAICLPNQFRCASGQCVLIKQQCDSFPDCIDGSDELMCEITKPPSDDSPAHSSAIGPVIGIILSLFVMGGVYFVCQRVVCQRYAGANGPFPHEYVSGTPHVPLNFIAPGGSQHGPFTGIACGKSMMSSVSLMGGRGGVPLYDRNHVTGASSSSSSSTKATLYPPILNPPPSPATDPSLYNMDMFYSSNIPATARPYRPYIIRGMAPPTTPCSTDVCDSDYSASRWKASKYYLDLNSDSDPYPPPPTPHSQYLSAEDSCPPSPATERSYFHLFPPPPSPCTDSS

B1: Mesd: recombinant wild-type mouse Mesd, polyhistidine tail at the N-terminus, lacks the signal peptide, expressed in E. coli (protein)
chain: ADTPGEATPPPRKKKDIRDYNDADMARLLEQWEKDDDIEEGDLPEHKRPSAPIDFSKLDPGKPESILKMTKKGKTLMMFVTVSGNPTEKETEEITSLWQGSLFNANYDVQRFIVGSDRAIFMLRDGSYAWEIKDFLVSQDRCAEVTLEGQMYPGKGGGSKEKNKTKPEKAKKKEGDRKPRASKEDNRAGSRREDL
modifications: left off: small tags and cut ends
notes: recombinant wild-type mouse Mesd, polyhistidine tail at the N-terminus, lacks the signal peptide, expressed in E. coli
Regarding B1, the “Reduction in binding of ^125I-DKK1 to LRP5” value in the test with LRP5 is “small but significant reduction”. The “Amount of the mature form of LRP6 on coexpression” value with LRP6 [1] is reported as “significantly increased”. In the test with LRP6 [2] (500 nM unlabeled competitor, ^125I-Mesd 5 nM, 2 hours at 4° C.), the “Inhibition of ^125I-Mesd binding to cell surface LRP6” value was > 90%. Also, in the test with LRP6 [2] (LRP6-transduced HT1080 cells, 3 hours at 4° C.), the “Concentration at which Mesd specific binding saturates” value was > 6.4 nM. In the test with LRP6 [2] (^125I-Mesd 5 nM, 4 hours at 4° C., LRP6-transduced HT1080 cells), the “^125I-Mesd binding level” value was found to be 1320 fmoles/mg cell protein. The “Effect of excess unlabeled Mesd on ^125I-Mesd binding” value with LRP6 [2] (unlabeled Mesd 500 nM, ^125I-Mesd 5 nM, 4° C.) is “completely eliminated this binding”. Further, in test [3], the “TCF/LEF transcriptional activity (TOP-FLASH) on coexpression” value was “significantly enhanced”.
